# Source: PMC4490510, “Cloning, Expression and Characterization of a Thermostable Esterase HydS14 from Actinomadura sp. Strain S14 in Pichia pastoris” (International Journal of Molecular Sciences, 2015)
# Experiments:
# [1] = test system: T1, CCCC(=O)Oc1ccc([N+](=O)[O-])cc1; experiment: purified protein; assay type: biochemical, Actinomadura sp. S14; conditions: 50 mM Tris-HCl pH 8.0, 50 °C, 0.4% Triton X-100, 0.1% gum arabic
# T1 construct: ORF 258 aa, 26,604 Da, no signal peptide; secreted from Pichia pastoris X33 via pPICZalphaA with 6xHis tag (predicted 29,117 Da, ~30 kDa SDS-PAGE), Ni-Sepharose purified, not N-glycosylated
# [2] = test system: T2, CC(=O)Oc1ccc([N+](=O)[O-])cc1; experiment: purified protein; assay type: biochemical, Actinomadura sp. S14; conditions: 50 mM Tris-HCl pH 8.0, 50 °C, 0.4% Triton X-100, 0.1% gum arabic
# T2 construct: ORF 258 aa, 26,604 Da, no signal peptide; secreted from Pichia pastoris X33 via pPICZalphaA with 6xHis tag (predicted 29,117 Da, ~30 kDa SDS-PAGE), Ni-Sepharose purified, not N-glycosylated
substance,measurement,setting,value
HydS14 (Actinomadura sp. S14),Km,[1],210 ± 20 µM
same,Vmax,[1],37.1 µmol/min/mg
same,kcat,[1],2.47 ± 0.07 s⁻¹
same,kcat/Km,[1],11700 ± 780 M⁻¹ s⁻¹
same,Km,[2],360 ± 10 µM
same,Vmax,[2],35.3 µmol/min/mg
same,kcat,[2],2.37 ± 0.06 s⁻¹
same,kcat/Km,[2],6590 ± 40 M⁻¹ s⁻¹
